Results from patent US20050260661A1, “Assays for the identification of modulators of MHC class II expression” (priority 2004, published 2005).

Legend:
[1] = target: T1, interaction between CIITA and Flag-RFXANK (Homo sapiens, UniProt P33076); test: CIITA/RFXANK interaction assay, competition with untagged RFXANK; format: binding; details: FIG. 7
T1 construct: made in house; host or cells: Sf9 insect cells (recombinant baculovirus); CIITA co-infected with a BirA baculovirus
T1 sequence (P33076 1-1130): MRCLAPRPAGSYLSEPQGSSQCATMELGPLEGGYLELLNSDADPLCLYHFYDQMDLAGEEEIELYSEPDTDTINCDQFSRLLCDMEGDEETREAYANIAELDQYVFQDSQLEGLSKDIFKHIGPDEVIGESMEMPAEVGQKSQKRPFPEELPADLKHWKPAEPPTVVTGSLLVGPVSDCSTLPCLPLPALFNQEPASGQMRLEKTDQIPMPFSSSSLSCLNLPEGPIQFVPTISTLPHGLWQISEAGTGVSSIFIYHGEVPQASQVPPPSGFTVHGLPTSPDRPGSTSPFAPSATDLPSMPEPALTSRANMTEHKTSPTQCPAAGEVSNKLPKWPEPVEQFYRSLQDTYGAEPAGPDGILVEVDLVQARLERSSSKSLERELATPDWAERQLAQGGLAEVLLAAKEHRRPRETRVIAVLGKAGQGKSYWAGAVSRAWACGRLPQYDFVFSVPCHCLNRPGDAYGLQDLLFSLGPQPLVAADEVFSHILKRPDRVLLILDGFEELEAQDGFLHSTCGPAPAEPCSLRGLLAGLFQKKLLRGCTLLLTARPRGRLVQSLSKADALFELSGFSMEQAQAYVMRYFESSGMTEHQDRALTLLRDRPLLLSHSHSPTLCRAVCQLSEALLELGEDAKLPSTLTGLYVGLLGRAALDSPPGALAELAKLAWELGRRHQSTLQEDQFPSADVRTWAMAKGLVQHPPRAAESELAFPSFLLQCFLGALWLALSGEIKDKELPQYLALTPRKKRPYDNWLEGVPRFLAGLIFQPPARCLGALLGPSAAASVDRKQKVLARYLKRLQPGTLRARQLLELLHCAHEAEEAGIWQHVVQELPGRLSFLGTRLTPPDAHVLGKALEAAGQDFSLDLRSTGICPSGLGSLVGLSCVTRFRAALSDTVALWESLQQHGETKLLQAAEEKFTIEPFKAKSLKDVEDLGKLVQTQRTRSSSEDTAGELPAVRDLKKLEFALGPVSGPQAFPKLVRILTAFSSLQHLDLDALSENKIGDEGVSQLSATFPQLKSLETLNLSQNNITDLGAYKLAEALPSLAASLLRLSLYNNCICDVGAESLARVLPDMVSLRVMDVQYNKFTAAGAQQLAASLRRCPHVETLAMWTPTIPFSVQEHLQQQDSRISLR
Description: Plasmids. The CIITA gene sequence was cloned into a modified pBAC-2 cp vector (Novagen) with a biotinylation tag inserted at the 5′ end of the gene. The RFXANK gene sequence containing a Flag tag at its N-terminus was cloned into a pFBHT vector (Invitrogen). These plasmids were used to generate recombinant baculoviruses according to standard procedures. Protein production: Sf9 cells grown in SF-900II medium (Invitrogen) were infected at MOI of 10 for 72 h before harvesting. To obtain in vivo biotinylated CIITA, Sf9 cells were co-infected with an E. coli biotin ligase expressing baculovirus (BirA gene) at a MOI of 1. Protein were purified using metal chelating affinity chromatography on HiTrap chelating column (Pharmacia). Purified fractions were pooled and quantified using ESL protein quantification kit (Roche) and the extent of CIITA biotinylation was estimated by pulldown experiments with Streptavidin-coated magnetic beads followed by PAGE analysis.
Assay. […] Wells were washed 5 times with 200 μl of wash solution (PBS; 0.05% Tween 20) and the adequate substrates for HRP were added to the well for either colorimetry, fluorescence or luminescence detection. […]

Biotinylated-CIITA = target: T2, Biotinylated-CIITA (UniProt P33076 1-1130, biotin on the biotinylation tag (in vivo biotinylation by co-expressed E. coli biotin ligase BirA; level close to 100%)); test: solid-phase plate assay: biotinylated CIITA on a streptavidin well, Flag-RFXANK detected with M2:HRP, colorimetric; assay and negative control each performed 48 times
T2 construct: Made in Sf9 cells from a modified pBAC-2cp baculovirus vector; also called recombinant biotinylated-CIITA; not shown: biotinylation tag inserted at the 5' end of the gene
T2 sequence (looked up): T1 sequence (P33076 1-1130)
Description: Assay. Biotinylated-CIITA (0.5 μg) and 0.8 μg of Flag-RFXANK in 100 μl of assay buffer (50 mM Hepes pH7.8; 10% glycerol; 5 mM MgCl₂; 0.1 mM EDTA; 0.01% NP-40; 200 mM KCl; 0.5% BSA; 0.1% Tween 20; 2 mM DTT) were incubated in a streptavidin-coated microwell for 2 h at room temperature. Wells containing no protein, only biotinylated CIITA or Flag RFXANK were included as controls. Wells were washed 5 times with 200 μl of wash solution (PBS; 0.05% Tween 20). 100 μl of Assay Buffer containing 0.5 μg/ml M2:HRP antibody (Sigma) was added to each well and incubated for 1 h at room temperature. Wells were washed 5 times with 200 μl of wash solution (PBS; 0.05% Tween 20) and the adequate substrates for HRP were added to the well for either colorimetry, fluorescence or luminescence detection.
To examine its reproducibility, the assay and negative control were performed 48 times. […] Increasing amounts of RFXANK were added to the wells containing biotinylated CIITA and Flag-RFXANK in the same assay as described above.

B1: RFXANK having an N-terminal Flag tag (Flag-RFXANK) (other, UniProt O14593 1-260, looked up)
chain: MELTQPAEDLIQTQQTPASELGDPEDPGEEAADGSDTVVLSLFPCTPEPVNPEPDASVSSPQAGSSLKHSTTLTNRQRGNEVSALPATLDSLSIHQLAAQGELDQLKEHLRKGDNLVNKPDERGFTPLIWASAFGEIETVRFLLEWGADPHILAKERESALSLASTGGYTDIVGLLLERDVDINIYDWNGGTPLLYAVRGNHVKCVEALLARGADLTTEADSGYTPMDLAVALGYRKVQQVIENHILKLFQSNLVPADPE
notes: not shown: Flag tag at the N-terminus
What does the source list for B1?
reduction of signal of the CIITA/Flag-RFXANK interaction ([1]; equivalent amounts of Flag-RFXANK and RFXANK): approximately 50%; competition of Flag-RFXANK for binding to CIITA ([1]; increasing amounts of RFXANK added to wells containing biotinylated CIITA and Flag-RFXANK): specifically competed by RFXANK for binding to CIITA in a dose-dependent manner; signal to background ratio (S/B) (Biotinylated-CIITA): 11.8
